# From patent US20250152742A1, “COMPOSITIONS AND METHODS FOR NEUROLOGICAL DISEASES” (Trames Bio, Inc., priority 2022, published 2025)
# B1: CODA330: engineered receptor: L131F in SEQ ID NO: 33 (protein)
# chain: MRCSPGGVWLALAASLLHVSLQGEFQRKLYKELVKNYNPLERPVANDSQPLTVYFSLSLLQIMDVDEKNQVLTTNIWLQMSWTDHYLQWNVSEYPGVKTVRFPDGQIWKPDILLYNSADERFDATFHTNVFVNSSGHCQYLPPGIFKSSCPMDLKNFPMDVQTCKLKFGSWSYGGWSLDLQMQEADISGYIPNGEWDLVGIPGKRSERFYECCKEPYPDVTFTVTMRRRMGYYLIQMYIPSLLIVILSWISFWINMDAAPARVGLGITTVLTMTTQSSGSRASLPKVSYVKAIDIWMAVCLLFVFSALLEYAAVNFVSRQHKELLRFRRKRRHHKSPMLNLFQEDEAGEGRFNFSAYGMGPACLQAKDGISVKGANNSNTTNPPPAPSKSPEEMRKLFIQRAKKIDKISRIGFPMAFLIFNMFYWIIYKIVRREDVHNQ
# modifications: synthetic sequence of chimeric LGIC
# Tested on: engineered chimeric receptor SEQ ID NO: 33 and its mutants (human α7-nAChR ligand binding domain / human GlyRα1 ion pore domain) in Lenti-X 293T cells
# Experiment: YFP fluorescence quenching anion reporter plate reader assay (percent quench, EC50)
# Format: cell-based
# Details: for YFP fluorescence quenching using CNL001 (percent quench): receptor named in row; for YFP fluorescence quenching using Varenicline, 3 nM var: ligand Varenicline 3 nM; for YFP fluorescence quenching using Varenicline, 30 nM var: ligand Varenicline 30 nM; for YFP fluorescence quenching using Varenicline, 300 nM var: ligand Varenicline 300 nM; for YFP fluorescence quenching using Varenicline, 500 nM var: ligand Varenicline 500 nM; for YFP fluorescence quenching using Varenicline, 1 uM var: ligand Varenicline 1 uM
# Text: To screen these mutant LGICs for those having novel response profiles to ligands, an anion reporter assay was developed to assess the function of the LGICs in a high throughput format. In this assay, cells expressing a YFP reporter whose fluorescence is quenched in the presence of anion are transfected with DNA encoding the channel of interest. Upon exposure to ligand, channels that are activated will flux anion, resulting in a dose-dependent quench of the YFP that can be detected on a plate reader. The greater the quench signal (i.e., the more positive the value), the higher the ligand activity on the receptor is.
# Lenti-X 293T cells (LX293T, Clontech) were maintained in DMEM containing 10% FBS and 1% penicillin/streptomycin (Invitrogen). […] Two days before assay, cells were split at a density of 20,000 cells/well in a 96-well tissue culture plate coated with poly-d lysine (Thermo Scientific). The next day, the cells were transiently transfected with 0.1 μg of DNA per well using standard Fugene protocol (Promega). On the day of assay, cells were washed 2 times in 1X extracellular solution (1X ECS: 140 mM NaCl, 5 mM KCl, 1 mM MgCl2, 2 mM CaCl2, 10 mM HEPES, 10 mM glucose, pH 7.2, mOsms 300). After the last wash, 100 μL of 1X ECS was added to the wells and the plate was incubated at 37° C. for 30 min. While incubating the plate, the drugs were diluted to a 2X concentration in 1X ECS-Nal (same components as 1X ECS except the 140 mM NaCl was replaced by 140 mM Nal). The plates were then read on a Flexstation3 (Molecular Devices). Each well, 8 wells at a time, of the plate is read for 2 min using a Flexstation3 (Molecular Devices) as follows: 1) a baseline YFP fluorescence is read for 17 sec, 2) 100 μL of ligand is added, and 3) the changes in YFP fluorescence are then measured every 1.3 sec for 1 minute and 43 seconds. The percent quench is calculated from the average fluorescence of the last 10 seconds of the read divided by the baseline average of the first 15 seconds prior to the ligand addition.
# FIGS. 1A-1J provide heat maps of the percent quench of YFP fluorescence following stimulation by various doses of either acetylcholine or the non-native ligand as indicated in the Figures. CODA71 (SEQ ID NO: 33) was used as a control, and CODA75 (SEQ ID NO: 29, a non-responding chimeric engineered receptor) was used as the negative control. Quenching of the fluorescence signal, as indicated by blue shaded cells, indicate the level of engineered receptor activation by the non-native ligand at that concentration.
molecule,measurement,setting,value
B1,YFP fluorescence quenching using CNL001 (percent quench),"1 nM CNL001, first column so headed",76.289%
same,YFP fluorescence quenching using CNL001 (percent quench),"1 nM CNL001, second column so headed",78.896%
same,YFP fluorescence quenching using TC-5619/Bradanicline (percent quench),1 nM brd (TC-5619/Bradanicline),−12.4%
same,YFP fluorescence quenching using TC-5619/Bradanicline (percent quench),3 nM brd (TC-5619/Bradanicline),25.12%
same,YFP fluorescence quenching using CNL001 (percent quench),"10 nM CNL001, first column so headed",79.339%
same,YFP fluorescence quenching using CNL001 (percent quench),"10 nM CNL001, second column so headed",80.245%
same,YFP fluorescence quenching using TC-5619/Bradanicline (percent quench),10 nM brd (TC-5619/Bradanicline),72.19%
same,YFP fluorescence quenching using TC-6683 (percent quench),30 nM TC-6683,−22.26%
same,YFP fluorescence quenching using TC-5619/Bradanicline (percent quench),30 nM brd (TC-5619/Bradanicline),76.35%
same,YFP fluorescence quenching using CNL001 (percent quench),"50 nM CNL001, first column so headed",80.831%
same,YFP fluorescence quenching using CNL001 (percent quench),"50 nM CNL001, second column so headed",80.605%
same,YFP fluorescence quenching using ABT-126 (percent quench),50 nM abt (ABT-126),−16.22%
same,YFP fluorescence quenching using CNL001 (percent quench),"100 nM CNL001, first column so headed",81%
same,YFP fluorescence quenching using CNL001 (percent quench),"100 nM CNL001, second column so headed",80.663%
same,YFP fluorescence quenching (percent quench),100 nM CNL002,−3.76%
same,YFP fluorescence quenching using ABT-126 (percent quench),100 nM abt (ABT-126),−11.89%
same,YFP fluorescence quenching using AZD-0328 (percent quench),100 nM azd0328,27.56%
same,YFP fluorescence quenching using TC-5619/Bradanicline (percent quench),100 nM brd (TC-5619/Bradanicline),78.94%
same,YFP fluorescence quenching using TC-6683 (percent quench),300 nM TC-6683,−18.89%
same,YFP fluorescence quenching using ABT-126 (percent quench),300 nM abt (ABT-126),39.23%
same,YFP fluorescence quenching using AZD-0328 (percent quench),300 nM azd0328,73.35%
same,YFP fluorescence quenching using TC-5619/Bradanicline (percent quench),300 nM brd (TC-5619/Bradanicline),77.06%
same,YFP fluorescence quenching using CNL001 (percent quench),"1 uM CNL001, first column so headed",81.293%
same,YFP fluorescence quenching using CNL001 (percent quench),"1 uM CNL001, second column so headed",81.428%
same,YFP fluorescence quenching (percent quench),1 uM CNL002,68.51%
same,YFP fluorescence quenching using ABT-126 (percent quench),1 uM abt (ABT-126),66.5%
same,YFP fluorescence quenching using TC-5619/Bradanicline (percent quench),1 uM brd (TC-5619/Bradanicline),78.61%
same,YFP fluorescence quenching using TC-6683 (percent quench),3 uM TC-6683,−9.45%
same,YFP fluorescence quenching (percent quench),10 uM ach (acetylcholine),11.07%
same,YFP fluorescence quenching (percent quench),30 uM CNL002,77.77%
same,YFP fluorescence quenching using TC-6683 (percent quench),30 uM TC-6683,−9.23%
same,YFP fluorescence quenching using AZD-0328 (percent quench),30 uM azd0328,77.14%
same,YFP fluorescence quenching using TC-6683 (percent quench),100 uM TC-6683,−10.75%
same,YFP fluorescence quenching (percent quench),100 uM ach (acetylcholine),43.34%
same,YFP fluorescence quenching (percent quench),1 mM ach (acetylcholine),77.52%
same,YFP fluorescence quenching (percent quench),3 mM ach (acetylcholine),74.89%
same,"YFP fluorescence quenching using Facinicline, 30 nM fac",ligand Facinicline 30 nM,2.9
same,"YFP fluorescence quenching using Facinicline, 300 nM fac",ligand Facinicline 300 nM,74.96
same,"YFP fluorescence quenching using Facinicline, 10 uM fac",ligand Facinicline 10 uM,81.97
same,"YFP fluorescence quenching using Facinicline, 30 uM fac",ligand Facinicline 30 uM,78.31
same,"YFP fluorescence quenching using TC-6987, 1 uM tc6987",ligand TC-6987 1 uM,53.37
same,"YFP fluorescence quenching using TC-6987, 10 uM tc6987",ligand TC-6987 10 uM,74.23
same,"YFP fluorescence quenching using TC-6987, 500 uM tc6987",ligand TC-6987 500 uM,72.25
same,"YFP fluorescence quenching using Varenicline, 3 nM var",first column,−3.016
same,"YFP fluorescence quenching using Varenicline, 3 nM var",second column,−1.452
same,"YFP fluorescence quenching using Varenicline, 30 nM var",first column,−0.193
same,"YFP fluorescence quenching using Varenicline, 30 nM var",second column,−1.853
same,"YFP fluorescence quenching using Varenicline, 300 nM var",first column,6.915
same,"YFP fluorescence quenching using Varenicline, 300 nM var",second column,6.513
same,"YFP fluorescence quenching using Varenicline, 500 nM var",first column,27.593
same,"YFP fluorescence quenching using Varenicline, 500 nM var",second column,29.863
same,"YFP fluorescence quenching using Varenicline, 1 uM var",first column,67.499
same,"YFP fluorescence quenching using Varenicline, 1 uM var",second column,65.57
